Reference: US6890910B1, “Murd protein and gene of Pseudomonas aeruginosa” (Merck & Co., Inc., priority 1998, dated 2005)

T1: recombinant MurD from P. aeruginosa (Pseudomonas aeruginosa, UniProt Q9HVZ9)
T1 construct: 6x His (pET-15b vector-encoded) (N); made in house; host or cells: E. coli BL21 (DE3)/pLysS
T1 sequence (Q9HVZ9 whole entry, looked up): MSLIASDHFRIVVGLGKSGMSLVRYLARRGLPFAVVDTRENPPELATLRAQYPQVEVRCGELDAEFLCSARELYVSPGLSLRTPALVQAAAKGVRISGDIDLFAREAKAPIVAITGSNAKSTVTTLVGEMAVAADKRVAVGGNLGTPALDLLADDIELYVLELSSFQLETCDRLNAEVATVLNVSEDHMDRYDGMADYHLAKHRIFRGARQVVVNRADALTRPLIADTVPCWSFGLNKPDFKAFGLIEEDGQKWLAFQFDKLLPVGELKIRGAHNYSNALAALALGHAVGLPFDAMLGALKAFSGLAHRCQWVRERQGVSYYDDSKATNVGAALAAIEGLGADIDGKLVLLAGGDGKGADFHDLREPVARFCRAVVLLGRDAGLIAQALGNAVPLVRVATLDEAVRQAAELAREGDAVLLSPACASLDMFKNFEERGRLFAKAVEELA

B1: P. aeruginosa MurD: Recombinant UDP-N-acetylmuramyl-L-alanine:D-glutamate ligase of Pseudomonas aeruginosa, over-produced as His-tagged fusion protein in E. coli (protein, listed as Pseudomonas aeruginosa)
chain: T1 sequence (Q9HVZ9 whole entry, looked up)
modifications: His tag
notes: Recombinant UDP-N-acetylmuramyl-L-alanine:D-glutamate ligase of Pseudomonas aeruginosa, over-produced as His-tagged fusion protein in E. coli

Legend:
[1] = target: recombinant MurD from E. coli (Escherichia coli, UniProt P14900); settings: 350 μM UDP-N-acetyl-muramyl-L-alanine
Protocol: The ATP-dependent MurD activity was assayed by monitoring the formation of product ADP using the pyruvate kinase and lactate dehydrogenase coupled enzyme assay. The reaction was monitored spectrophotometrically.
Typically, the assay contained 100 mM BIS-TRIS-propane, pH 8.0, 200 μM NADH, 1 mM ATP, 20 mM PEP, 5 mM MgCl2, 1 mM DTT, 350 μM UDP-N-acetyl-muramyl-L-alanine, 1 mM D-glutamate, 33 units/ml of pyruvate kinase and 1660 units/ml of lactate dehydrogenase in a final volume of 200 or 400 μl. The mixture was incubated at 25° C. for 5 min and the reaction initiated by the addition of 1-10 μg of MurD.
Rates were calculated from the linear portions of the progress curves using the extinction coefficient for NADH, e=6220 cm^−1 M^−1. One unit of MurD activity is equal to 1 μmol of ADP formed per min at 25° C.

[2] = target: T1, recombinant MurD from P. aeruginosa; assay: ATP-dependent MurD activity, pyruvate kinase/lactate dehydrogenase coupled enzyme assay; format: biochemical; settings: UDP-N-acetylmuramyl-L-ala 350 μM, D-glutamate 1 mM, ATP 1 mM, 200 μl at 25° C.
Excerpt: The reaction was monitored spectrophotometrically.

recombinant MurD from E. coli, sequence (P14900 whole entry): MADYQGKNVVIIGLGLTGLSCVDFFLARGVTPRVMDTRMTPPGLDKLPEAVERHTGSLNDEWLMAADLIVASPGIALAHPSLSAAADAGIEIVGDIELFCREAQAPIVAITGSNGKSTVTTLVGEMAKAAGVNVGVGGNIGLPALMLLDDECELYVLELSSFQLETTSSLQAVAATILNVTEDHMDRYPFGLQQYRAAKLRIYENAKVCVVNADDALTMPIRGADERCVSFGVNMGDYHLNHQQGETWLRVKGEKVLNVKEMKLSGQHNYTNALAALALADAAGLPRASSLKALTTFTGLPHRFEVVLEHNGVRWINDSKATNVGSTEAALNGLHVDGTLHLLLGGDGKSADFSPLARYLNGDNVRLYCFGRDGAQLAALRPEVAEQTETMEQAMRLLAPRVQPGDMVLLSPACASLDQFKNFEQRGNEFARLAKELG

Molecule | substrate inhibition [1] | units ([2]; 0.0015 mg protein) | Specific activity [2]
CC(=O)N[C@H]1C(OP(=O)(O)OP(=O)(O)OC[C@H]2O[C@@H](n3ccc(=O)[nH]c3=O)[C@H](O)[C@@H]2O)O[C@H](CO)[C@@H](O)[C@@H]1O[C@H](C)C(=O)N[C@H](C)C(=O)O (stereo partly drawn) [UDP-N-acetyl-muramyl-L-alanine] | substrate inhibition of the E. coli MurD occurs |  | 
B1 |  | 0.0047 µmol/min | 3.12 (μmol/min)/mg
